Measured values as given in FireProtDB (doi:10.1042/bj2870481).

Conditions: Aspergillus oryzae (strain ATCC 42149 / RIB 40), 25 °C, GdnHCl, Absorbance, Unknown, KCl 0.1 M, reversible: yes, whole UniProt chain shown

B1: Guanyl-specific ribonuclease T1 wild type, P00651 (protein)
chain: MMYSKLLTLTTLLLPTALALPSLVERACDYTCGSNCYSSSDVSTAQAAGYQLHEDGETVGSNSYPHKYNNYEGFDFSVSSPYYEWPILSSGDVYSGGSPGADRVVFNENNQLAGVITHTGASGNNFVECT
denaturant m value (pH 1.3): 2.03 kcal/mol/M | denaturant midpoint (higher = more stable) (pH 1.3): 0.93 M | unfolding free energy (pH 1.3): 1.9 kcal/mol | denaturant m value (pH 3): 2.91 kcal/mol/M | denaturant midpoint (higher = more stable) (pH 3): 1.94 M | unfolding free energy (pH 3): 5.66 kcal/mol | denaturant m value (pH 7): 2.93 kcal/mol/M | denaturant midpoint (higher = more stable) (pH 7): 2.97 M | unfolding free energy (pH 7): 8.74 kcal/mol
